Test results reported in article PMC3149894 (Journal of molecular biology, 2010).

B1: knobΔTAYT protein containing an MA(H)6 tag at the N-terminus (Ad5 fiber knob, TAYT deleted) (domain or fragment, human adenovirus serotype 5, UniProt P11818 387-581, looked up)
chain: GAITVGNKNNDKLTLWTTPAPSPNCRLNAEKDAKLTLVLTKCGSQILATVSVLAVKGSLAPISGTVQSAHLIIRFDENGVLLNNSFLDPEYWNFRNGDLTEGNAVGFMPNLSAYPKSHGKTAKSNIVSQVYLNGDKTKPVTLTITLNGTQETGDTTPSAYSMSFSWDWSGHNYINEIFATSSYTFSYIAQE
B2: biotinylated knobΔTAYT protein carrying an N-terminal MRGS(H)6 tag followed by an AviTag (domain or fragment, human adenovirus serotype 5, UniProt P11818 387-581, looked up)
chain: B1 chain
modifications: biotin (biotinylated in the host by protein biotin ligase from pBirA)
B3: knobΔTAYT version with an N-terminal MA(H)6 tag followed by an AviTag (biotinylated) (domain or fragment, human adenovirus serotype 5, UniProt P11818 387-581, looked up)
chain: B1 chain
modifications: biotin (biotinylated in the host by protein biotin ligase from pBirA)

Molecular target: the molecule itself
Assay: SEC-MALS + other: SDS-PAGE
For B1, the “stoichiometry N” value was 3. In the case of B2, the “stoichiometry N” value is reported as 3. For B3, the “stoichiometry N” value was 3.
